From the supplement of paper PMC10126150
± gives the standard deviation of the averaged measurements.

system: ATP; test: switch fluorescence ratio, 500 uM ATP over buffer (Cy3 cluster intensity, sum of 5 cycles each) (fold (ratio)); higher = stronger signal-on switching upon ATP binding; sequences stand for … in TCGTCGGCAGCGTCAGATGTGTATAAGAGACAGTTTTTTTTTTTTTTTTTTTTTTTTT…TC; conditions: aptamer strand: ATP DNA aptamer (quencher-CACCTGGGGGAGTATTGCGGAGGAAGG + anchor), 100 nM annealed; ATP concentration: 500 uM
Summary of the method: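 Per cluster, summed Cy3 intensity from the target cycles was divided by that from the buffer cycles to give the fluorescence ratio, then averaged per switch-domain sequence. Clusters outside 100-1000 RFU were excluded. The Cy3-labelled switching-strand clusters, on a modified Illumina MiSeq flow-cell, were annealed to 100 nM quencher-labelled ATP aptamer and imaged in selection buffer, then after 15 min with 500 uM ATP at 22 °C, for five cycles with NaOH stripping and re-annealing between them.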
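Further: ATP exposure 15 min at 22 °C before imaging.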

Sequence	switch fluorescence ratio
GCTCCGTGGG	1.93 ± 0.1
GTTGGGTCCC	0.9857 ± 0.0069
ATAGTTCTAC	0.987 ± 0.0074
GAATGGGTCG	0.989 ± 0.033
TTTTGTGGTT	1.02 ± 0.065
AGAAAAATTG	0.979 ± 0.067
TGGGGGTTGA	1.01 ± 0.028
GGGGGGGTCA	0.994 ± 0.027
CGGGTCTTAG	1.01 ± 0.011
AATCCTATCA	1.02 ± 0.014
AGGTGTCTTG	1.14 ± 0.074
TGGGTGTGGT	1 ± 0.025
TTTTTGTGTA	0.969 ± 0.012
AAATCCGCTT	1.27 ± 0.26
TGAAGAAAGG	0.981 ± 0.02
CTAGGGTTGT	1.02 ± 0.045
TTGGTTACAT	0.994 ± 0.013
TTTATGGTGT	1.17 ± 0.21
CTGAGTATGT	0.988 ± 0.015
TTATTAGTTT	0.994 ± 0.017
ATCGGGAGAC	1.27 ± 0.21
TACGGGGGGT	1.02 ± 0.026
CTTACTAGC	1.02 ± 0.029

Sequence	switch fluorescence ratio
GTGATTGGCG	0.971 ± 0.046
CAACTGCACG	1.22 ± 0.079
GCTGGGGCAG	1.016 ± 0.01
GGTGCTGGCA	0.956 ± 0.051
CGGTTCCGTA	0.971 ± 0.047
CGGATGGTCA	1.013 ± 0.0099
TCCGAGGTTT	1.28 ± 0.044
TCTGATTGTG	0.972 ± 0.047
AAAAATAGGG	1.03 ± 0.04
TACCCCGGTA	1.04 ± 0.035
TACCCGGGTT	1.11 ± 0.2
CAGCTGGTTT	1.004 ± 0.0077
GCAGAATGCA	0.9861 ± 0.0024
TTTAACTAGC	1.034 ± 0.0063
AAATGTGCGA	0.977 ± 0.019
AGTGATCAGG	1 ± 0.019
AAGGGGAGAG	0.993 ± 0.018
CCGTTTTTGT	0.9922 ± 0.006
TAGATATTTT	0.986 ± 0.032
TGAAGATATT	0.993 ± 0.023
AATTAATGGA	0.997 ± 0.036
TAGAGCACGG	1.02 ± 0.012
GCCTTATATA	0.9952 ± 0.0063

Sequence	switch fluorescence ratio
ACGTCCGCTA	2.6 ± 0.064
CGGTGGTTGC	1.03 ± 0.11
CTCAATCGAA	1.03 ± 0.026
ATAAAGCTCT	1.01 ± 0.019
TTAAAGGGGT	1.05 ± 0.1
TTGGGGCAGT	0.997 ± 0.035
TTTTGCGGTG	1.01 ± 0.017
TACATTAGGC	1.05 ± 0.018
GAACTAGGGC	1.02 ± 0.1
AGGGTGACGG	1.02 ± 0.031
GCAGACATAG	0.983 ± 0.025
ACAGCAGGGG	1.25 ± 0.17
CTTCCGGGGT	1.68 ± 0.1
GCGATCTGGA	1.04 ± 0.022
GTGACATGGA	1 ± 0.014
GTGGCTTAGG	0.9796 ± 0.0035
TGCTGGCATG	0.967 ± 0.014
CTAGCTTACT	1.36 ± 0.065
ATTAAGGATT	1.01 ± 0.016
CGAGGTGGGA	0.9972 ± 0.0025
GATGTATGTA	0.973 ± 0.021
CAGAAAGGAC	1.02 ± 0.031
GAGACTGGTT	1.03 ± 0.034

Sequence	switch fluorescence ratio
TAGACGTCGT	0.965 ± 0.024
TTGTCAGCGT	0.997 ± 0.012
GAAGCGACTC	2.42 ± 0.03
GGGTTCTTAA	0.981 ± 0.048
CAGCTTTGAG	1.01 ± 0.037
AGAATCAGGT	0.9701 ± 0.0014
TTTACAGCAT	1.06 ± 0.14
TTCGTTTAAT	0.9989 ± 0.0017
GCTAACCCTT	1.06 ± 0.0036
AAATGGTAAT	0.978 ± 0.036
TCGAAAGGCA	1.04 ± 0.031
GGGTTGGGTT	1.05 ± 0.18
CATCTATTTT	1 ± 0.035
GCCCGTATGG	1 ± 0.019
ACATCATACG	1.233 ± 0.01
TTTTAGGTGA	1.07 ± 0.025
TTGGGGCGGG	1.01 ± 0.039
CATCGTGGTA	1.04 ± 0.11
CTCGGGGAGT	1.012 ± 0.0064
GGGCCTTGGT	0.987 ± 0.025
TTTATACTGT	1.03 ± 0.024
TGTGAATCCA	0.976 ± 0.027
TTTGCTAGGT	1.02 ± 0.031

Sequence	switch fluorescence ratio
GGGTATGTAT	0.992 ± 0.027
GGCTACTTTA	1.07 ± 0.039
TATTTTTTTT	1.01 ± 0.043
GAGTACTGTA	1.14 ± 0.053
TTCTTTGGAT	1.03 ± 0.028
AGGGACGCGC	1.07 ± 0.018
AGTGAGGGGT	0.97 ± 0.03
GCAGGGACCC	1.12 ± 0.12
TGAGTGAAAT	1.1 ± 0.014
ATTATTGGCG	1.01 ± 0.042
TATCGAAGTG	0.993 ± 0.019
CTGTATTCTG	0.962 ± 0.015
ATGGAGAGGG	0.987 ± 0.037
AGAATGAGGG	0.991 ± 0.041
TTGGGCGTTC	1.12 ± 0.15
TGCGTTGGGG	0.981 ± 0.019
AGCACTGGGA	1.04 ± 0.029
GATAATTGAG	1.04 ± 0.044
TTACTTGAGA	0.99 ± 0.032
GGAGAAATTT	0.9816 ± 0.0062
CTTTCGAGAG	1 ± 0.025
AGTTCTTTGT	0.985 ± 0.024
GTTTGTTGGT	0.977 ± 0.013

Sequence	switch fluorescence ratio
TAAAATTGAG	1 ± 0.024
TTCTGAGAAT	1.042 ± 0.0044
AAAGGGTAAT	0.984 ± 0.018
ATACGTTTGG	1.01 ± 0.054
CCGTTGAGCT	1.112 ± 0.01
ATTTTTTAGG	0.993 ± 0.025
TCGTAAGGAA	1.01 ± 0.02
TTAATAATGG	0.979 ± 0.026
TTAGAGACAG	0.985 ± 0.049
TGGACGCGCT	1.01 ± 0.025
GTGCGGGCGC	0.944 ± 0.04
ATTAGGAGAT	0.9964 ± 0.0063
TGCGGGATGA	1.04 ± 0.018
ATGTGGTCGC	0.9972 ± 0.0016
GGCGAAAGAG	1.02 ± 0.049
TTAATCTTTT	1.06 ± 0.14
ATTTGGGACA	1.01 ± 0.012
AAATTAATCA	1.04 ± 0.094
ATATCTAGCC	0.9611 ± 0.0042
GCCGGGGCGC	1 ± 0.012
GTGGATTGTG	0.971 ± 0.067
GTTTATTATA	1 ± 0.011
GGAATTATGA	0.995 ± 0.024

Sequence	switch fluorescence ratio
CAAAAGTGGT	1.01 ± 0.018
TCAGAGGGGG	0.992 ± 0.036
GCAGTGCCTA	0.993 ± 0.044
GGGGGTATTA	0.97014 ± 0.00019
ATCGTCATAT	1 ± 0.036
GCGTTTGCAT	1.03 ± 0.034
GCTAGTGCTT	0.956 ± 0.011
CAATGAGGG	0.997 ± 0.022
TGCTGTGTTT	1.02 ± 0.039
GGAGATTTTG	1 ± 0.042
GCATGTAGAT	0.998 ± 0.047
CGCCAGGGGA	1.43 ± 0.59
TCTAACCTGG	1.006 ± 0.0042
AGTATTCAGG	1 ± 0.027
AAATAATTTA	0.955 ± 0.038
TAAGGCTACC	1.048 ± 0.004
AGGCCGGGGG	0.992 ± 0.025
AGTATTGGAG	1.004 ± 0.0023
TTGTTCGGTT	0.998 ± 0.024
